By EC50 is commonly meant the concentration that produces a half-maximal response. A low value points to an effect from little substance. As a reminder, the IC50 is the point on the concentration scale where inhibition reaches its midpoint. One may read the Kd as the free concentration of one partner at which half of the binding sites on the other are occupied at equilibrium, for simple one-to-one binding.

The text below walks through data of US20260265352A1, “STABLE PHARMACEUTICAL FORMULATION COMPRISING ANTI-GREMLIN1 ANTIBODY” (SUZHOU TRANSCENTA THERAPEUTICS CO., LTD., priority 2022, published 2026).

A value given as a limit tells only on which side of the number the result lay.

For test [1], the system named is esophageal cancer PDX model E7. Briefly: Tumor growth inhibition in esophageal cancer PDX model. It counts as in vivo, NOD/SCID mice. The settings on record: 26th day; antibody 20 mg/kg i.p. twice a week, cisplatin 3 mg/kg i.v. once a week, 4 weeks. The text has this: Human gremlin IHC specifically positive esophageal tumor tissue (E7) was obtained from Beijing Cancer Hospital passage in NOD/SCID mice and established PDX bank. […] Each mouse was subcutaneously inoculated with a small tumor tissue block approximately 3 mm in diameter which sheared from integrated tumor decollement form a tumor bearing mouse. 18 days after inoculation animals with tumor size at about 70 mmn^3 were selected and randomly divided into 4 groups, each group consisting of 8 mice. Then the mice were treated with isotype control+PBS, the anti-GREM1 antibody of the present disclosure at dose of 20 mg/kg, Cisplatin at dose of 3 mg/kg and combination of the anti-GREM1 antibody of the present disclosure and Cisplatin. Isotype control and the anti-GREM1 antibody of the present disclosure were administrated twice a week for 4 weeks by i.p. injection and PBS, while Cisplatin was administrated once a week for 4 weeks by i.v. injection. Animals were sacrificed at the end of the study with CO2 inhalation. Tumor size was measured twice or triple times a week in two dimensions using a caliper (INSIZE) and the volume was expressed in mmA3 using the formula: V=0.5 a*b^2 where a and b are the long and short diameters of the tumor, respectively. Results were analyzed using Prism GraphPad and expressed as mean±S.E.M. Comparisons between two groups were made by T-test, and the difference is considered significant if p is *<0.05 and **<0.01.

Test [2] has as its target human Gremlin/GREM1 protein (Acro) (human) (UniProt O60565). In words: ELISA, binding to hGremlin-his.
Test [3] concerns the target modified human GREM1-his (human) (UniProt O60565). Briefly: blocking ELISA; competitor coated human BMP2; 1 ug/ml modified human GREM1-his detected with anti-his HRP.
Test [4] has the same target. Briefly: blocking ELISA; competitor coated human BMP4; 1 ug/ml modified human GREM1-his detected with anti-his HRP.
The target of test [5] is human Gremlin/GREM1 protein (Acro) (human) (UniProt O60565). In words: ELISA, coated hGREM1 (ACRO). (In general: An ELISA detects its analyte on a solid surface through an enzyme-linked reagent.)
Test [6] has the same target. Briefly: BLI (ForteBio), human GREM1-his on NTA biosensor, antibody at 100, 50 and 25 nM. (In general: Biolayer interferometry detects binding as a change in optical thickness at a sensor tip.)
For test [7], the target named is T1, human Gremlin/GREM1 protein (Acro) (human, UniProt O60565 25-184).
T1 construct: Bought protein (ACRO); also called hGREM1 (ACRO); human GREM1; not shown: his tag
T1 sequence (looked up): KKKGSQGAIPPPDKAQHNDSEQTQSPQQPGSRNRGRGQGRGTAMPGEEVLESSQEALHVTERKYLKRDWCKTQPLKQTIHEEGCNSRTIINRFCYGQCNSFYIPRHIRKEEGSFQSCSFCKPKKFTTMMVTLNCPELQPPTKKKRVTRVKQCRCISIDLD
In words: ELISA, coated hGREM1 (ACRO). The procedure: (§1) A transparent polystyrene culture plate (BEAVER) was coated with a high pH coating buffer containing 0.5 μg/ml hGREM1 (ACRO) and mouse gremlin (R&D) at 100 μl/well at 4° C. overnight. Then, the culture plate was washed once with PBS and 0.1% of Tween 20 (Sigma) on an automatic culture plate washer. 100 μl of a blocking solution consisting of PBS, 1% of BSA, 1% of standard goat serum and 0.50% of Tween 20 (Sigma) was added into each well for incubation at room temperature for 2 hours. Then, 100 μl of an antibody (started with 2 μg/ml and continuously diluted) in an antibody dilution buffer containing PBS, 1% of BSA, 1% of standard goat serum and 0.01% of Tween 20 was added into each well of the culture plate for incubation at room temperature for 1 hour. Then, the culture plate was washed with 200 μl of a solution containing PBS and 0.1% of Tween 20 for three times, and goat anti-mouse IgG-HRP (Abcam) at a ratio of 1:10000 was added at 100 μl/well for incubation at room temperature for 1 hour. Then, the culture plate was washed with a solution containing PBS and 0.1% of Tween 20 for 3 times. Finally, TMB (Pierce) was added into each well at 100 μl/well, and several minutes later, 50 μl of a termination solution was added into each well. The culture plate was read on a Multiscan FC microplate reader (Thermo Scientific) at 450 nM.

The target in test [8] is T1, human Gremlin/GREM1 protein (Acro). In words: BLI (ForteBio), human GREM1-his on NTA biosensor. The method, then: (§2) The concentration of 0 nM was used as a reference control. The antibody to be tested was diluted to a concentration of 100 nM, 50 nM and 25 nM with a ForteBio kinetic buffer (including PBS with a pH value of 7.4, 0.1% of BSA and 0.002% of Tween-20). […] Then, dissociation was performed in a kinetic buffer for 90 seconds to obtain Koff factor data.

For test [9] the target is unchanged. Briefly: BLI (ForteBio), human GREM1-his on NTA biosensor, antibody at 100, 50 and 25 nM. The procedure: as §2
Test [10] has the same target. Briefly: ELISA, binding to hGremlin-his. The procedure:
as §1

The target of a further test is T2, Human GREM1 (Homo sapiens, UniProt O60565).
T2 construct: His; purchased ACRO
T2 sequence (O60565 25-184): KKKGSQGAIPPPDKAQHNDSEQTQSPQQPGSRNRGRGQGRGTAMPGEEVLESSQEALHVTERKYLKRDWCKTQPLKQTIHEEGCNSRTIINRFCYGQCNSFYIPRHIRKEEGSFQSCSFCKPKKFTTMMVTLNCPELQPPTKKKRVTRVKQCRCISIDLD
In words: Binding affinity to human GREM1 through ELISA. The following applies: for EC50 of binding to hGremlin-his: Table 17. The procedure: as §1, with “nM. As shown in Table 16 and Table 17, compared with a reference antibody 6245P, the anti-GREM1 antibody used in the present disclosure and other humanized anti-GREM1 antibodies (e.g., Hu14E3_HaLb, Hu14E3_HbLa, Hu14E3_HbLb, Hu14E3_HcLa and Hu14E3_HcLb) have better binding affinity with human GREM1.” for “nM.”

In the case of `N.N.[Cl][Pt][Cl]` [Cisplatin, reference compound], in test [1], the “TGI (%)” value is 59.79% and the “Tumor size (mm^3, mean +/− S.E.M)” value is 479.41 +/− 104.05 mm^3.

B1: reference antibody 6245P (antibody, from another filing, IgG4, V domains shown)
VH: EVQLVESGGGLVQPGGSLRLSCAASGFTFNSFWMSWVRQAPGKGLEWVANIKQDGSEKYYVDSVKGRFTISRDNAKNSVYLQMNSLRAEDTAVYYCARDLVTSFDYWGQGTLVTVSS
VL: DIQMTQSPSSLSASVGDRVTITCQASQDINNYLNWYQQKPGKAPKLLIYDASYLETGVPSGFSGSGSGTDFTFTISSLQPEDIATYYCQQYDSLPYTFGQGTKLEIK
Turning to B1, the EC50 in [2] and in [5] was 57.5 ng/mL each time. Also, the IC50 in test [3] amounted to 797 ng/mL; in test [4], 638 ng/mL. The dissociation constant (Kd) in [6] came to 2.58 nM.

B2: Hu14E3_HaLa (antibody, human IgG1, kappa, V domains shown)
VH: QVQLVQSGSELKKPGASVKVSCKASGYTFTTYGMAWMRQAPGQGLEWMGWINTLSGEPTYADDFKGRFVFSLDTSVSTAYLQISSLKAEDTAVYYCAREPMDYWGQGTMVTVSS
VL: DVVMTQSPLSLPVTLGQPASISCKSSQSLLDSDGKTYLSWLQQRPGQSPRRLIYLVSKLDSGVPDRFSGSGSGTDFTLKISRVEAEDVGVYYCWQGAHFPLTFGQGTKLEIKR
notes: also called anti-GREM1 antibody used in the present disclosure; humanized 14E3
Molecule B2 came in with an EC50 in test [7] of 6.9 ng/mL. Further, the Kd in test [8] is less than 1 nM; in [9], less than 0.001 nM.

B3: Hu14E3_HbLb (antibody, human IgG1, V domains shown)
VH: QIQLVQSGSELKKPGASVKVSCKASGYTFTTYGMAWMRQAPGQGLEWMGWINTLSGEPTYADDFKGRFAFSLDTSVSTAYLQISSLKAEDTAVYYCAREPMDYWGQGTMVTVSS
VL: DVVMTQSPLSLPVTLGQPASISCKSSQSLLDSDGKTYLSWLQQRPGQSPRRLISLVSKLDSGVPDRFSGSGSGTDFTLKISRVEAEDVGVYYCWQGAHFPLTFGQGTKLEIK
notes: also called humanized 14E3
In test [10], B3 yielded an EC50 of 6.2 ng/mL. The “EC50 of binding to hGremlin-his” value with Human GREM1 was 6.2 ng/mL.

B4: Hu14E3_HaLa: humanized 14E3, heavy chain variable region SEQ ID NO: 7, light chain variable region SEQ ID NO: 8; antibody used in the examples (antibody, V domains shown)
VH: QVQLVQSGSELKKPGASVKVSCKASGYTFTTYGMAWMRQAPGQGLEWMGWINTLSGEPTYADDFKGRFVFSLDTSVSTAYLQISSLKAEDTAVYYCAREPMDYWGQGTMVTVSS
VL: DVVMTQSPLSLPVTLGQPASISCKSSQSLLDSDGKTYLSWLQQRPGQSPRRLIYLVSKLDSGVPDRFSGSGSGTDFTLKISRVEAEDVGVYYCWQGAHFPLTFGQGTKLEIK
B4: in test [1], the “TGI (%)” value worked out at 42.92% and the “Tumor size (mm^3, mean +/− S.E.M)” value is given as 680.59 +/− 163.73 mm^3. Besides, the “EC50 (ng/ml) Human GREM1” value with Human GREM1 (Table 16) worked out at 6.90 ng/mL. In the test with Human GREM1, the “EC50 of binding to hGremlin-his” value was found to be 6.9 ng/mL.

B5: Hu14E3_HbLa (antibody, human IgG1, V domains shown)
VH: QIQLVQSGSELKKPGASVKVSCKASGYTFTTYGMAWMRQAPGQGLEWMGWINTLSGEPTYADDFKGRFAFSLDTSVSTAYLQISSLKAEDTAVYYCAREPMDYWGQGTMVTVSS
VL: DVVMTQSPLSLPVTLGQPASISCKSSQSLLDSDGKTYLSWLQQRPGQSPRRLIYLVSKLDSGVPDRFSGSGSGTDFTLKISRVEAEDVGVYYCWQGAHFPLTFGQGTKLEIK
notes: also called humanized 14E3
Turning to B5, the EC50 in test [10] came out at 6 ng/mL. Also, the “EC50 of binding to hGremlin-his” value with Human GREM1 was 6.0 ng/mL.

B6: Hu14E3_HcLa (antibody, human IgG1, V domains shown)
VH: QIQLVQSGSELKKPGASVKVSCKASGSTFTTYGMAWMKQAPGQGLTWMGWINTLSGEPTYADDFKGRFAFSLDTSVSTAYLQISSLKAEDTAVYYCAREPMDYWGQGTMVTVSS
VL: DVVMTQSPLSLPVTLGQPASISCKSSQSLLDSDGKTYLSWLQQRPGQSPRRLIYLVSKLDSGVPDRFSGSGSGTDFTLKISRVEAEDVGVYYCWQGAHFPLTFGQGTKLEIK
notes: also called humanized 14E3
In test [10], B6 had an EC50 of 6.6 ng/mL. In addition, in the test with Human GREM1, the “EC50 of binding to hGremlin-his” value stood at 6.6 ng/mL.

B7: Hu14E3_HaLb (antibody, human IgG1, V domains shown)
VH: QVQLVQSGSELKKPGASVKVSCKASGYTFTTYGMAWMRQAPGQGLEWMGWINTLSGEPTYADDFKGRFVFSLDTSVSTAYLQISSLKAEDTAVYYCAREPMDYWGQGTMVTVSS
VL: DVVMTQSPLSLPVTLGQPASISCKSSQSLLDSDGKTYLSWLQQRPGQSPRRLISLVSKLDSGVPDRFSGSGSGTDFTLKISRVEAEDVGVYYCWQGAHFPLTFGQGTKLEIK
notes: also called humanized 14E3
The molecule B7 returned an EC50 in test [10] of 5.6 ng/mL. In addition, the “EC50 of binding to hGremlin-his” value in the test with Human GREM1 was determined as 5.6 ng/mL.

B8: Hu14E3_HcLb (antibody, human IgG1, V domains shown)
VH: QIQLVQSGSELKKPGASVKVSCKASGSTFTTYGMAWMKQAPGQGLTWMGWINTLSGEPTYADDFKGRFAFSLDTSVSTAYLQISSLKAEDTAVYYCAREPMDYWGQGTMVTVSS
VL: DVVMTQSPLSLPVTLGQPASISCKSSQSLLDSDGKTYLSWLQQRPGQSPRRLISLVSKLDSGVPDRFSGSGSGTDFTLKISRVEAEDVGVYYCWQGAHFPLTFGQGTKLEIK
notes: also called humanized 14E3
In test [10], B8 yielded an EC50 of 6.1 ng/mL. Also, the “EC50 of binding to hGremlin-his” value with Human GREM1 came to 6.1 ng/mL.
